Measurements reported in patent publication US5356875A, “Anti-thrombin polypeptides and pharmaceutical compositions thereof” (Farmitalia Carlo ERBA S.r.l., priority 1991, dated 1994).

What was measured:
[1] = cited from earlier work
thrombin [2] = molecular target: T1, thrombin (Homo sapiens, UniProt P00734); test: anti-thrombin activity of P2 released from fusion protein (test not specified); assay type: biochemical; conditions: P2 released by CNBr cleavage of polyhedrin fusion protein from S. frugiperda cytoplasm
Protocol: The recombinant baculovirus was obtained as described in Example 5. Infection of S. frugiperda cells was carried out according to standard procedures^20. Cultivation of infected insect cells lead to the cytoplasmic accumulation of the fusion protein. This hybrid protein was the source of recombinant protein P2. Several methods are available from the literature which can be used to cleave the hybrid with CNBr^22,23.The application of the method of Olson et al^23, has allowed us to obtain the correct polypeptidic sequence of P2.

thrombin [3] = molecular target: T1, thrombin; test: chromogenic assay: inhibition of thrombin cleavage of synthetic substrate S-2238; assay type: biochemical

For hirudin, the “efficacy in preventing venous thrombosis, vascular shunt occlusion and thrombin-induced disseminated intravascular coagulation” value ([1]; animal studies) is listed as “demonstrated efficacy”, the antigenicity ([1]; in vivo) is listed as “little or no antigenicity” and the “clearance time from circulation” value ([1]; in vivo) is listed as “very short clearance time”. For the same molecule, the toxicity ([1]; in vivo) was “low toxicity”.

B1: P2: 64-residue anti-thrombin polypeptide from Hirudinaria manillensis, HPLC peak P2, sequence (ii); also produced recombinantly in E. coli and insect cells (protein)
chain: VSYTDCTESGQNYCLCVGSNVCGEGKNCQLSSSGNQCVHGEGTPKPKSQTEGDFEEIPDEDILN
In the case of B1, the anti-thrombin activity (thrombin [2]) is reported as “displayed anti-thrombin activity”, the “activity of P2” value (thrombin [3]; E. coli type B strains with plasmid pOMP-P2 (Plpp/lac promoter)) is reported as “active” and the anti-thrombin activity (thrombin [3]; culture supernatants of S. frugiperda cells infected with recombinant baculovirus, spinner culture or monolayers) is reported as “presence of an anti-thrombin activity”. For the same molecule, the anti-thrombin activity (thrombin [3]; periplasmic fraction of E. coli type B NCTC 10537 transformed with pFC-P2) was “presence of anti-thrombin activity”.
